Measurements taken from US20100322946A1.

Key:
[1] = target: human VEGF (form not stated) (human) (UniProt P15692); experiment: biotin-hVEGF with IgG, free VEGF captured on Avastin
human VEGF165 (human) = human VEGF165 (human) (UniProt P15692); experiment: competition ELISA, hVEGF165 in solution varied
Sequence of human VEGF165 (human) (P15692 other isoform, or with tags, fused parts or gaps): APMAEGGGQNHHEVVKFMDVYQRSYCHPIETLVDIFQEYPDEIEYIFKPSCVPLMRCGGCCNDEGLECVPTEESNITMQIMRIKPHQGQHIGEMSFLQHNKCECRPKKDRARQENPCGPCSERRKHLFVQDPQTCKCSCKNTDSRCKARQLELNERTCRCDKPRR

IC50 (read off the curve) [1]: 3 nM
IC50 (read off the curve) (human VEGF165 (human)): 3 nM
Substance: G6 hIgG (antibody)
